Experimental findings from patent publication US20030171295A1 are described below.

Broadly, the Kd is the concentration at which binding is half-saturated. A high value points to lower affinity.

This test addresses human melanocortin 1 receptor (hMC1-r transfected COS-7 cells) (human) (UniProt Q01726). The test can be described thus: Scatchard analysis on MC1-r transfected COS7 cells, culture supernatant with up to 30 nM AP-Ag.

Substance “AP-Ag, truncated agouti protein containing the cysteine-rich domain tagged with alkaline phosphatase at its N-terminal (from UniProt Q03288) (ligand)” came in with a Kd of 20 to 30 nM.
